{
  "source": "paper PMC3253018",
  "origin": "cited, not measured here",
  "target": "NiV-G attachment glycoprotein (Nipah virus) (UniProt Q9IH62)",
  "sequence (Q9IH62 whole entry)": "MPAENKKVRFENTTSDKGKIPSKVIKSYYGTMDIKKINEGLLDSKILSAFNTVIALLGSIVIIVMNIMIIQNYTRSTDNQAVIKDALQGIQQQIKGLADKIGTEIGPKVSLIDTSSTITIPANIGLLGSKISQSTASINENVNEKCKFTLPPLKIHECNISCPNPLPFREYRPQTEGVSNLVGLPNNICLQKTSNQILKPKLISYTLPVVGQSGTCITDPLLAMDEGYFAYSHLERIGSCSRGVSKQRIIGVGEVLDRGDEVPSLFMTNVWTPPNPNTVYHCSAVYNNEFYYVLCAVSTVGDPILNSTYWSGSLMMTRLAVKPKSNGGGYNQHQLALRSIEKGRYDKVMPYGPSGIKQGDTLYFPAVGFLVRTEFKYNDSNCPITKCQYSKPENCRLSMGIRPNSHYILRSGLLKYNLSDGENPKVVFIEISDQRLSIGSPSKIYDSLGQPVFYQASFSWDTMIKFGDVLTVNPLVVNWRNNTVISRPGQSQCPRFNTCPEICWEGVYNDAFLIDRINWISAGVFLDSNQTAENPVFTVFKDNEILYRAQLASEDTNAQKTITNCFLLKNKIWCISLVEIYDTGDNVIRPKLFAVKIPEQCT",
  "data": [
    {"substance": "ephrinB2 (from UniProt P52799)", "values": [
      {"measurement": "Kd", "result": 0.06, "unit": "nM"}
    ]}
  ]
}
